Test results taken from the supplement of paper PMC12042874.
± gives the uncertainty stated by the source.

Assay: amyloid nucleation score (Sup35N fusion, yeast selection) (log enrichment); library NNK2; higher = more nucleation; inactive = no reads after selection
Method in brief: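 Nucleation score is defined as the DiMSum log enrichment of output over input reads, with centring on the mode score of non-aggregating sequences. A minimum of 100 input reads was required for each sequence. Reads came from Illumina sequencing of plasmid inserts from psi-negative yeast expressing Sup35N fused to peptides of 20 random codons, induced with 100 μM copper sulfate for 24 hours and grown 7 days at 30°C on medium lacking adenine and uracil.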

Substance | amyloid nucleation score
GNVYHLPDCLNLTWVLKIKN | -0.944 ± 0.39
GPCDQSWAT | 1.06 ± 0.19
GPKPGDVSYVYKSCRTHNSP | 0.53 ± 0.29
GPLSNLYTKYDANENDGFIL | -0.321 ± 0.41
GQSCHYCRMTLNIDFTDWVL | -0.228 ± 0.39
GQVLLFCMRTTYTMDEEFNS | 0.082 ± 1
GRCSSSLRICRSNWGAY | 0.45 ± 0.22
GRGAAILYMECYAVAEVCTF | 0.108 ± 0.26
GRGYAAVLNWRLFDKDRGRI | 0.035 ± 0.28
GRKCVTYSCPF | 0.185 ± 0.39
GRKTDFHFDVRFAWGDNGFS | inactive
GRLLQGWLIAEHVITVHFPM | inactive
GRNLMLSGVCGYKDVFLQAR | 0.359 ± 0.34
GRSFILTRLRFIFPVYTVC | inactive
GRSGRNNVKAW | inactive
GRTYGFSSRVVMRRGSCDFG | 0.913 ± 0.52
GRWKDRFCTVGMLYSRG | -0.316 ± 0.45
GSAMF | inactive
GSCRDLDLLLERHWRVVSNL | 0.903 ± 0.57
GSFSEYVLWT | 0.863 ± 0.41
GSGFLFFSVF | 0.353 ± 0.25
GSKDFLV | -0.047 ± 1.1
GSLNTLSIFDDE | -0.684 ± 0.64
GSNETPHLDALSPSALRMGH | 0.103 ± 0.63

Substance | amyloid nucleation score
GSNHRSVVFIFLMLMGFMES | -0.205 ± 0.76
GSNTSDHDNLD | -0.238 ± 0.5
GSPGIETGIAAEEWNGGW | 0.865 ± 0.5
GSPSRRGTVYRVWRVRWCNG | 0.307 ± 0.64
GSQVCILLAKGLWMVVFRIE | -0.795 ± 0.55
GSSNASVATGFVHIKEVKGG | 0.461 ± 0.8
GSVFLRGTYWVLKDVCGWKE | 0.391 ± 0.56
GSVTVCIMSRR | -0.729 ± 0.64
GSYCCLVKFMKFFSSLGHQF | -1.29 ± 1
GSYFGHNIHLGAVWPIIGYP | 0.117 ± 0.3
GTAPSDQRTSSCR | 0.989 ± 0.23
GTLMTCVGG | inactive
GTLWRFKESTMGLTGITAGT | 0.987 ± 0.4
GTRNVLIHAK | -1.26 ± 1.1
GTRYILVKGTMGYDLCYFLG | 2.69 ± 0.13
GTTDTCSAV | 3.2 ± 0.093
GTTWLTVLALVALSEISCRM | 0.384 ± 0.28
GTVGGVGMFVLLVTRSKVFV | 1.3 ± 0.29
GTVGVGMS | 1.11 ± 0.66
GVCLSGACAGISGGADYSGR | 0.332 ± 0.22
GVDDARTTKAGNWYSVRKGQ | 1.64 ± 0.41
GVDKWLDHVCFVASYLSVKV | 1.22 ± 0.51
GVFALSPRKHLRCDVVAWGV | 0.884 ± 0.55
GVIWVCIRCDHGGTAMRLLW | 1.25 ± 0.45

Substance | amyloid nucleation score
GVIWWPVTLCFWLCAKYIGL | -0.552 ± 1.1
GVKST | 0.422 ± 0.74
GVLDRFPDESNILGVSFSCL | -0.575 ± 0.26
GVLYLFTVTVMDKKFTM | 3.5 ± 0.077
GVMSPHVTTFNILCVNNVLC | 8.72 ± 0.07
GVNILTLWHWIYFNTTVQNN | -1.19 ± 0.38
GVPRMTSVDSYRLLLFSASR | 0.19 ± 0.25
GVRMQLFGTLMSSAHQVRVG | 0.69 ± 0.17
GVSLFYNWPPSAFKVRYE | -0.611 ± 1
GVSVSVYHGWLVLDRMFHNS | 4.25 ± 0.12
GVWYFANFFVVMRAVGCDVG | 0.484 ± 0.36
GVYKVGMVPWFIQFSDVGGR | 5.73 ± 0.068
GVYLGSPSYVDLSVALFSIV | 0.073 ± 0.29
GWCSYTP | 0.832 ± 0.67
GWIVSLFVV | 0.769 ± 0.46
GWVLTSCGANGWRK | -0.371 ± 0.63
GYDGRFIASRSVYFKARIGG | -0.056 ± 0.29
GYIYVNSGYRFTKLCMVFC | 0.058 ± 0.79
GYLFGSALKSDIQYHTESMF | inactive
GYLLGSDSGDGGPFVIERIK | 0.687 ± 0.38
GYLSDMINFVSYCGRLSWSV | inactive
GYMSYT | -0.863 ± 0.32
